Target: the molecule itself
Test: native MS; online nanoflow strong cation exchange chromatography coupled to nESI native MS (nanoSCX-nMS); salt-mediated pH gradient from 50 mM ammonium acetate pH 5.0 to 250 mM ammonium acetate pH 8.5

B1: alcohol dehydrogenase (enzyme, UniProt P00330 1-348, looked up)
chain: MSIPETQKGVIFYESHGKLEYKDIPVPKPKANELLINVKYSGVCHTDLHAWHGDWPLPVKLPLVGGHEGAGVVVGMGENVKGWKIGDYAGIKWLNGSCMACEYCELGNESNCPHADLSGYTHDGSFQQYATADAVQAAHIPQGTDLAQVAPILCAGITVYKALKSANLMAGHWVAISGAAGGLGSLAVQYAKAMGYRVLGIDGGEGKEELFRSIGGEVFIDFTKEKDIVGAVLKATDGGAHGVINVSVSEAAIEASTRYVRANGTTVLVGMPAGAKCCSDVFNQVVKSISIVGSYVGNRADTREALDFFARGLVKSPIKVVGLSTLPEIYEKMEKGQIVGRYVVDTSK
notes: alcohol dehydrogenase (ADH), model oligomeric protein called a tetramer; also called ADH
Question: How did the “stoichiometry N” value turn out when B1 was run?
Answer: Its value is 4.
